According to article PMC2932728, “The Canine Papillomavirus and Gamma HPV E7 Proteins Use an Alternative Domain to Bind and Destabilize the Retinoblastoma Protein” (PLoS Pathogens, 2010):

T1: GST HPV16 E7CR1CR2 (human papillomavirus type 16 (HPV16), UniProt P03129 1-38)
T1 construct: E7 protein of human papillomavirus type 16, CR1 and CR2 domains; also called the combined CR domains; source: E. coli BL21pLysS, purified (glutathione-Sepharose)
T1 chain: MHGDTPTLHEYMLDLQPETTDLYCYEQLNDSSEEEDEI

B1: human retinoblastoma tumor suppressor protein pRb (natural protein, human (endogenous in Jurkat), UniProt P06400 1-928, looked up)
chain: MPPKTPRKTAATAAAAAAEPPAPPPPPPPEEDPEQDSGPEDLPLVRLEFEETEEPDFTALCQKLKIPDHVRERAWLTWEKVSSVDGVLGGYIQKKKELWGICIFIAAVDLDEMSFTFTELQKNIEISVHKFFNLLKEIDTSTKVDNAMSRLLKKYDVLFALFSKLERTCELIYLTQPSSSISTEINSALVLKVSWITFLLAKGEVLQMEDDLVISFQLMLCVLDYFIKLSPPMLLKEPYKTAVIPINGSPRTPRRGQNRSARIAKQLENDTRIIEVLCKEHECNIDEVKNVYFKNFIPFMNSLGLVTSNGLPEVENLSKRYEEIYLKNKDLDARLFLDHDKTLQTDSIDSFETQRTPRKSNLDEEVNVIPPHTPVRTVMNTIQQLMMILNSASDQPSENLISYFNNCTVNPKESILKRVKDIGYIFKEKFAKAVGQGCVEIGSQRYKLGVRLYYRVMESMLKSEEERLSIQNFSKLLNDNIFHMSLLACALEVVMATYSRSTSQNLDSGTDLSFPWILNVLNLKAFDFYKVIESFIKAEGNLTREMIKHLERCEHRIMESLAWLSDSPLFDLIKQSKDREGPTDHLESACPLNLPLQNNHTAADMYLSPVRSPKKKGSTTRVNSTANAETQATSAFQTQKPLKSTSLSLFYKKVYRLAYLRLNTLCERLLSEHPELEHIIWTLFQHTLQNEYELMRDRHLDQIMMCSMYGICKVKNIDLKFKIIVTAYKDLPHAVQETFKRVLIKEEEYDSIIVFYNSVFMQRLKTNILQYASTRPPTLSPIPHIPRSPYKFPSSPLRIPGGNIYISPLKSPYKISEGLPTPTKMTPRSRILVSIGESFGTSEKFQKINQMVCNSDRVLKRSAEGSNPPKPLKKLRFDIEGSDEADGSKHLPGESKFQQKLAEMTSTRTRMQKQKMNDSMDTSNKEEK
notes: retinoblastoma protein pRb, human, endogenous in Jurkat cell nuclear extract; also called human pRb; source: endogenous, Jurkat cell nuclear extract

Experiments:
pRb = assay: GST pull-down, Western blot with anti-pRb antibody, densitometry; conditions: binding normalized to GSTE7 protein; wild type CPV-2 E7 GST fusion set to 100%; parent: 100
GST HPV16 E7CR1CR2 = target: T1, GST HPV16 E7CR1CR2; assay: pull-down; 5 µg GST fusion protein with 50 µg Jurkat cell nuclear extract, 1 h at 4°C in 20 mM Hepes/150 mM KCl/4 mM MgCl2/1 mM EDTA/0.02% Nonidet P-40/10% glycerol; glutathione-Sepharose beads; Western blot for pRb and GST, densitometry normalised to GSTE7, wild type CPV-2 E7 set to 100%; conditions: one partner purified

| Molecule | percent of parent (pRb) [%] | fold pRb bound against the HPV16 E7 carboxyl-terminus domain (GST HPV16 E7CR1CR2) [fold] |
| --- | --- | --- |
| GST CPV-2 E7 wild type fusion protein S26G | 99 |  |
| GST CPV-2 E7 wild type fusion protein S26C | 147 |  |
| B1 |  | 6 |
